In this test the target is mVEGF (mouse (from the prefix m only; not spelled out in the filing)) (UniProt Q00731). Briefly: BIAcore (SPR), column mVEGF. On the technique in general: In SPR one partner is held on a chip, and binding of the other changes the refractive index at the surface.

For orientation: Kd means the free concentration of one partner at which half of the binding sites on the other are occupied at equilibrium, for simple one-to-one binding. Read a high Kd as weaker binding.

Chain of mVEGF (mouse (from the prefix m only; not spelled out in the filing)) (Q00731 other isoform, or with tags, fused parts or gaps limits assumed): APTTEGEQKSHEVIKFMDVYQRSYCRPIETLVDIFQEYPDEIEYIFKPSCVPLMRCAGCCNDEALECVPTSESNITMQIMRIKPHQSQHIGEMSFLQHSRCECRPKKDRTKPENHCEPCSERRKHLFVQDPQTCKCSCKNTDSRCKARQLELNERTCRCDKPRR

Substance Avastin® (bevacizumab) (antibody) had a Kd of 6.88 nM.
